The target in test [1] is T1, αCD3-αEGFR-PD-1-OX40L GEMINI-Exos (human).
T1 construct: Engineered exosome from Expi293F cells co-transfected with the αCD3-αEGFR-PDGFR TMD and PD-1-CD9-OX40L constructs; Both fusions sit on the same exosome; also called genetically engineered multifunctional immune-modulating exosomes
Description: flow cytometry on BT-20 cells, anti-HA detection.
Description: BT-20 cells were treated with 100 U/mL IFN-γ (BioLegend) for 2 days to induce expression of PD-L1. […] Briefly, cells (300,000 cells per tube) were stained with 100 μg mL⁻¹ of exosomes for 30 minutes at 4° C. Cells were washed three times with PBS containing 2% FBS and stained with an anti-HA antibody (2-2.2.14, from Thermo Fisher Scientific) for 30 minutes at 4° C. […] Thereafter, cells were washed and resuspended in PBS containing 2% FBS, followed by analysis using a BD Fortessa X20 flow cytometer. Data were processed by FlowJo_V10 software (Tree Star Inc., Ashland, OR).

Test [2] has as its target T1, αCD3-αEGFR-PD-1-OX40L GEMINI-Exos. Description: assay not named. The procedure: FIG. 3. […] (A) Immunoblot analysis of purified exosomes. […] Data are shown as mean±SD of duplicates. […] The levels of secreted IL-2 were measured by ELISA.
ELISA analysis of binding of engineered exosomes to ligands and receptors. […] High-binding 96 well plates (Greiner Bio-One, Monroe, NC) were coated with various concentrations of exosomes overnight at room temperature. Following extensive washing with PBST, wells were blocked with PBS containing 1% BSA for 2 hours at room temperature, followed by extensive washing with PBST. Corresponding ligands or receptors ([…]; PD-L1-hFc and PD-L2-hFc from PeproTech, Inc. and OX40-hFc from BioLegend) were added and incubated for 2 hours at room temperature, followed by extensive washing with PBST. Goat anti-human IgG-HRP was subsequently added for 1-hour incubation at room temperature, followed by extensive washing. QuantaBlu fluorogenic peroxidase substrate (Thermo Fisher Scientific, MA) was then added.

B1: PD-L2 on IFN-γ stimulated BT-20 cells (ligand, human, UniProt Q9BQ51 20-273, looked up)
chain: LFTVTVPKELYIIEHGSNVTLECNFDTGSHVNLGAITASLQKVENDTSPHRERATLLEEQLPLGKASFHIPQVQVRDEGQYQCIIIYGVAWDYKYLTLKVKASYRKINTHILKVPETDEVELTCQATGYPLAEVSWPNVSVPANTSHSRTPEGLYQVTSVLRLKPPPGRNFSCVFWNTHVRELTLASIDLQSQMEPRTHPTWLLHIFIPFCIIAFIFIATVIALRKQLCQKLYSSKDTTKRPVTTTKREVNSAI
notes: whole, on cells; BT-20 cells also carry PD-L1 and EGFR; also called PD-L2^+ BT-20 cells
Take B1: the binding result in test [1] is on record as “binds”.

B2: PD-L2-hFc (Fc fusion, human, UniProt Q9BQ51 20-220, looked up)
chain: LFTVTVPKELYIIEHGSNVTLECNFDTGSHVNLGAITASLQKVENDTSPHRERATLLEEQLPLGKASFHIPQVQVRDEGQYQCIIIYGVAWDYKYLTLKVKASYRKINTHILKVPETDEVELTCQATGYPLAEVSWPNVSVPANTSHSRTPEGLYQVTSVLRLKPPPGRNFSCVFWNTHVRELTLASIDLQSQMEPRTHPT
notes: Bought from PeproTech; also called PD-L2-Fc; not shown: human Fc (hFc) of the bought reagent
For the molecule B2, in test [2], the binding result is “binds”.

B3: OX40-hFc (Fc fusion, human, UniProt P43489 29-214, looked up)
chain: LHCVGDTYPSNDRCCHECRPGNGMVSRCSRSQNTVCRPCGPGFYNDVVSSKPCKPCTWCNLRSGSERKQLCTATQDTVCRCRAGTQPLDSYKPGVDCAPCPPGHFSPGDNQACKPWTNCTLAGKHTLQPASNSSDAICEDRDPPATQPQETQGPPARPITVQPTEAWPRTSQGPSTRPVEVPGGRA
notes: Bought from BioLegend; also called OX40-Fc; biotinylated OX40-hFc; not shown: human Fc (hFc) of the bought reagent
As to B3, the binding result in test [2] is “binds”.

These data come from US20250092143A1 (UNIVERSITY OF SOUTHERN CALIFORNIA, published 2025).
